In the domain aggregation screens of Martell et al. (2025):

Assay: soluble fraction after stress (log2 fold change); higher = more stays soluble; pooled small domains, quantitative proteomics
Conditions: stress: pH 4
Summary of the method: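 Pooled custom libraries of small protein domains were subjected to pH 4 and measured by high-throughput quantitative proteomics. The log2 fold change in soluble amount per domain is reported, higher values meaning more remained soluble. This is used as a measure of aggregation propensity.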

First: HMMQEIKLEVINNEELRIDNYINLAGIGLSRSYIQKLIKDGVILVNGKEVKSSYKVSLGDIISVQIPDPG
Second: HMMVIMRANATEPQIANVVAYVEKNGLNAHLSRGAERTVIGVVGDIRRVSKETFELMDGVDSVMRIS
The “soluble fraction (log2)” value of the first is higher: -0.209 for the first, -0.734 for the second.

Compared with “HMNADKEALIAAAYRNSLIENFGTENVERYEERFNKWADKHDRQGMPMYPTIEKWMNEDNIA”, “HMNADRIVGQTAKVIHPITPDEKGRVMVDNLDWAAAAQNRGESFEVGEEVSIVRIEGVTVYVQK” is lower in “soluble fraction (log2)” value: -0.209 for the first, -0.57 for the second.

“HMNADTVIGKAGTVIEKIDNVAATGAVKIDGKVWTARSERDNITIDEGTLVKAMAIEGVKLIVEPVT” and “HMNAEGLIGREAVALTAVDAHGGRVRLGGEEWSARLSKENGGVSRLSVGDPVRVTDIDGAIAVVAP” are within 0.2 log units of each other in “soluble fraction (log2)” value: 0.0947 for the first, 0.0456 for the second.

Compared with “HMNAEQLAQVRRQKIGFIFQDFRLFPEYTVRDNILIPFYLDHRAPDEQMLHKLTGILGIAGKLHSRPAQL”, “HMNAKVVAPIPGTVLSIDIKVGDVIKIGDRLLVLEAMKMENNIASEKSGTVTAVHVKVGQQVLQNELMIEL” is lower in “soluble fraction (log2)” value: -0.0979 for the first, -1.2 for the second.

First: HMNALNDLESKIFEEVVKAPEIIMNMTIREFASTVHASPTTIVRMTHKLGFSGWNELKTYLQKQKHQIS
Second: HMNALREVNTSILNVRSGAGTNYSKIGSLTQATRVSVISESNGWSKINYNGKVGYVSSQYLS
The “soluble fraction (log2)” value of the first is lower: -0.0849 for the first, at least 0.43 for the second.

“HMNAMKPVLTVSLGVHTDSLSRRLNEEGIIYRWQQAASEQLLLVDSESSSERIAELIHDWRLEQSSS” and “HMNANTILNSQRILTQLGFNPGPIDGAFGAKTKGALNAFYTSIGKSYDGLLDSNELVELQKALDVSGLKN” are within 0.2 log units of each other in “soluble fraction (log2)” value: -0.051 for the first, -0.198 for the second.

First: HMNDADAHASVDAALKHLEALAETTPEVRAALELVRRGPDGRVTVDSFARVAEALREISIAVGAS
Second: HMNDELMEQIDEWHKAEKHQEIIDALEQIPEAERDFETTGFLARAYNNIEEYAKAADLLESVRE
The “soluble fraction (log2)” value of the first is higher: -0.632 for the first, -1.51 for the second.

Compared with “HMNDGEIAAPVSGTLQSFKVEDGQTVSEGDLVAVMEAMKMETQILATKGGTIRLLVKEGDYLQAGHALMTI”, “HMNDGTIRVGTNVTIKPSAKRWATGQNIYYGVKGKTYKVIQMNGNRLLLDKVISWINKGDVYVPGS” is higher in “soluble fraction (log2)” value: -1.07 for the first, 0.192 for the second.

Going from “HMNDIDRFIEALIEQDTLPGTNSRINEDVISEMKMMTSVEDIKAYAIATVGLTGGQVNNALINSGL” to “HMNDIVKIYTTHRIINIEGLAKNEPIMLYTINGTLIDKSVSSNGSAQLHVKGIGVYLVKWANNIVKVIVPN”, the “soluble fraction (log2)” value rises from -1.61 to 0.199.

Compared with “HMNDLDSLWDIWENLNERGIGDKSEEGQELRDAIREFIDTNELNVRVTRNKTNEDLLTDIEDALEVAKNS”, “HMNDLIFSTLAEYDRDTITEIISVVDNTRGIGYEVELVRKDLIAMAAQAEARRDYLPSVIGDVEVFKRNLL” is higher in “soluble fraction (log2)” value: -2.07 for the first, -0.0414 for the second.

Compared with “HMNDNQNKQMLWELLKDNRAFDNFDNKDYKTIIHLFNETVNTIDHRTPNLDLIKKNKIFIQDIMQKLSNL”, “HMNDSGIIGVVINDHEKYEGHVLEDGFISSSLSALSREIDVAGYFMMVKTVVYEGFFQELKGIGNV” is higher in “soluble fraction (log2)” value: -1.04 for the first, 0.079 for the second.

“HMNDTNEEAVLSIILKNPQATQGAIAKEVGASLSTVKRIMRNLQKSGKLRREGTNRNGSWVVTGQK” and “HMNDTPPELRAALDLLGLKWPLASVELRARYKDLAKQHHPDATGGDKQAEERLKDINRAYSLLKHRLAKQ” are within 0.2 log units of each other in “soluble fraction (log2)” value: 0.136 for the first, 0.144 for the second.

Compared with “HMNDTVGMNIRRLRKERGMTQGDLADKAGIQRETISKYESNKLTPPSYNLESIEKALKVPAGTLAQ”, “HMNDYIGVDRAKEIALNHARMNESDVQFAKAKLENDDGVVEYEIEFYFGRTEYDYTIDAVSGNIIEYDVEY” is lower in “soluble fraction (log2)” value: 0.22 for the first, -0.0067 for the second.

Compared with “HMNEDDQLLKVLLAEPLRLEELYNLDLKPQGPYNLQTWIMVHLTELERDGLIARFPDGRYGPAR”, “HMNEFAYLIKISPEHNNNRYYRMVAEGDNFRIEMGRIGASPVQMKRPMYLWNETYQKKLQEGYTDRTSYTS” is higher in “soluble fraction (log2)” value: -1.57 for the first, -0.2 for the second.

Compared with “HMNEIDLEAAKRIALQNAGVESADAAFTKAQLDYDDGVAEYEIEFVAGSTKYEYEISAANGTVLKSSKESV”, “HMNEIEIHINKLFGKISDSKRKQELMQEITQNLNEKVSDLVSQGQTREQAVKKAIEDFGDIDDLKDELDN” is lower in “soluble fraction (log2)” value: 0.243 for the first, -0.0968 for the second.

“HMNEIYHQIKVDNVSDDDISLFQYSGIEFDHADYRRGEYIEFAISNRDLSILNNLGYEYQVVHH” and “HMNEKAALIFNEWSDFVSKDDEANAQIKFDELITLYKKTGYTKIALLEVATKQASNGDIEGALAKYSLLID” are within 0.2 log units of each other in “soluble fraction (log2)” value: -1.07 for the first, -0.919 for the second.

Compared with “HMNEKTGTLTVYSSPGWAKVYIDGEYKGITPVMANLTYGDHYVKLTLDGYDSIGNHIDVNSPDQSYTGKF”, “HMNELIGVEQLQDLREAIADHGFAEQRVLNWLYQATKGQVSRLEQLPLPMLTTLHKKLGQWADAEAAASSA” is lower in “soluble fraction (log2)” value: 0.0783 for the first, -0.499 for the second.

First: HMNELVEATITTQTGRLDKVLTTIFPQYSRSQIQQLLEQGNILVNETLQKGKYKVKAGDKISLTEPAIKE
Second: HMNEMSDTITRLLDAAETGIRLRGYHAVSFRDLAEELGIKSSSVHYYFRQKEDLGLAVVERY
The “soluble fraction (log2)” value of the first is higher: at least 0.43 for the first, -0.185 for the second.

Compared with “HMNENDPRVIKTRRLLLDSFVVLVRKKDFTSISVKDITDSAQVNRATFYAHFQDKYDILEYMVID”, “HMNENNFIVAMRERLAQFIETSGTSQSRIAKELGVSKSTVSLFLGGTYGGNNQELARNLEQLLSMGAARR” is higher in “soluble fraction (log2)” value: -0.198 for the first, 0.212 for the second.

Going from “HMNEPMITEVKRINYGSIKEIAKNLDVFKGKNGTVIIDERTNTLILTDLSENIEKMLWSIEITD” to “HMNERTKIPLRKIEIGQAVYVDTLEKVGTVIDIQGKQFKVDLAGLPITVAARNLFYPLPQEAKP”, the “soluble fraction (log2)” value rises from -0.855 to -0.0254.

First: HMNESADMPDVVNMSLEAAKSQLEGMGLKVKVENVEDDSVEENHVIKTSPVSGEKVKLGTTVTLTVSKGR
Second: HMNESEALIARIENLPPIEDLTEKHAEEVKALMTVYSKLKMSDRILVTNYGVLKKDFDALVKKGFLTNED
The “soluble fraction (log2)” value of the first is lower: -0.279 for the first, 0.0976 for the second.

First: HMNETHANKVYNFLKKKKKPLSAYEILKELASEGISAPTTIYRALNKLVSNGLIHKIESLNAWTV
Second: HMNETLKQIRINALQYSEKDMATKLGLPLSEYKEIENDKPLNFTLLIRLSQAVGKTIDDLLNAQ
The “soluble fraction (log2)” value of the first is higher: 0.185 for the first, -0.128 for the second.

“HMNEVETWSVQADGATGRIDKWLAEQNEWSRSQVQEWLKAGRVEVDGRVVKPNYKLSGTESIAVHIPEAV” and “HMNEWVSVEERLPTDERPVLAFIGYADTMNGFITTSYYFRFDPDPHWLGEGLIPVGLKTLFWMPLPAP” are within 0.2 log units of each other in “soluble fraction (log2)” value: -0.0787 for the first, -0.0414 for the second.

First: HMNEYSLVPDIYGMTYDDALSSLRNVGLDGRLALASTNEDLANADTRVVWQSKEAGSIIDKGSNVMFVID
Second: HMNFAERIKELRKEKGITQIDLAEAVGLSKGTVAMWEVDKREANFDTLNKLSDYFQVSIDYLLGRSNDRS
The “soluble fraction (log2)” value of the first is lower: -1.27 for the first, -0.206 for the second.

Going from “HMNFDVETGLPLDSRLVVSGLIQRDGINSLKRYEGMIVYVESEAKNYQLVGGISNTDWAELS” to “HMNFGEVLQTKRKSMGLTQEDLADKLFVSSETISNWETNKTTPDIDNVIRISQLFDISLNNLLL”, the “soluble fraction (log2)” value falls from -0.426 to -0.89.

Going from “HMNFIPGEKINLKIVQEGKEKNQGVGYLSDGTMVIVENGSQKLGQDVEVVVIKNIQSSAGKIVFGDISK” to “HMNFSRQREIIYEQVRNFPVHPTAEEVYRALKNDNPNLSLGTVYRNLNQLSEAGMLLKIPIADGSDRFDGR”, the “soluble fraction (log2)” value falls from 0.227 to -0.56.

“HMNFTETENRIYEEILKNVKQHKKKTVVQIAEKVDVAPSYVIKVAKKLGYSGLNEMWYSLSGIY” and “HMNFTMERLYTKELTSEDIDEIKKELNSMGYTEGVEFNIIKGDKTSFIMAERQLKAKMLSHLSDLGLPRGA” are within 0.2 log units of each other in “soluble fraction (log2)” value: -0.0318 for the first, 0.0335 for the second.

For “HMNGAAAEQARKQLMTALKASEFIAQDKLDEWLDALALPQEKRSAIIDAVDELDYEEAISELEN”, the “soluble fraction (log2)” value was -0.2.
